One series has as its target RelE (Escherichia coli) (UniProt P0C077). As to conditions: cited from earlier work.
The target of series [1] is CdiA-CT^536(H3193A) (Escherichia coli strain 536 (UPEC536)). Nature of the series: SPR; Biacore 3000, 30°C; CdiA-CT^(M) immobilized on CM5 chip (723 RU); 10 mM HEPES pH 7.5, 150 mM NaCl, 20 μl/min; analyte CdiI 5-40 nM (1:1 Langmuir model) or CysK 0.4-6.4 μM dimer.
Series [2] has the same target. In words: AUC; sedimentation velocity, 40,000 rpm, 15°C, 20 mM HEPES pH 7.5, 250 mM NaCl; 10, 20 and 30 μM; c(s) model in SEDFIT; complexes mixed and incubated at 4°C for 1 h.
In series [3] the target is CdiA-CT^(M)/CysK complex (heterotetramer) (Escherichia coli strain 536 (UPEC536) | E. coli K12) (UniProt P0ABK5). In words: ITC; 30°C, 20 mM HEPES pH 7.5, 150 mM NaCl; CdiA-CT^(M) or its preformed complex in the sample cell, CdiI or CysK (dimer concentration) in the syringe; one-site model for CdiA-CT^(M)/CdiI, two binding site model where CysK is involved; apparent enthalpy. Background: Isothermal titration calorimetry measures the heat released or taken up as one component is titrated into another.

Series [4] concerns the target CdiA-CT^536(H3193A) (Escherichia coli strain 536 (UPEC536)). The description is as above.
Series [5] addresses CdiA-CT^(M)/CysK complex (heterotetramer) (Escherichia coli strain 536 (UPEC536) | E. coli K12) (UniProt P0ABK5). Nature of the series: SPR; Biacore 3000, 30°C; CdiA-CT^(M) immobilized on a separate CM5 chip (760 RU), first 0.6 μM CysK (dimer) passed over it to form the CdiA-CT^(M)/CysK complex, then CdiI injected at 2.5-40 nM; local fitting, separate ka/kd model. In general terms: In SPR one partner is held on a chip, and binding of the other changes the refractive index at the surface.

For series [6], the target named is SpoIISB (Bacillus subtilis) (UniProt O34800). The conditions noted are these: cited from earlier work.
SpoIISB (Bacillus subtilis), sequence (O34800 whole entry): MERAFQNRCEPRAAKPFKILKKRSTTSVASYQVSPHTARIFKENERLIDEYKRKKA
Series [7] deals with the molecule itself. Nature of the series: SEC; analytical SEC, Superdex 200 Increase 10/300 GL, 20 mM HEPES pH 7.5, 250 mM NaCl, ~15°C; samples 10, 20 and 30 μM; for complexes purified proteins mixed in varying molar ratios and incubated at 4°C for 1 h; fractions analysed by SDS-PAGE. Background: In gel filtration, larger molecules generally elute earlier.
The target in series [8] is CdiA-CT^(M)/CdiI complex (heterodimer) (Escherichia coli strain 536 (UPEC536)). In words: AUC; sedimentation velocity, 40,000 rpm, 15°C, 20 mM HEPES pH 7.5, 250 mM NaCl; 10, 20 and 30 μM; c(s) model in SEDFIT; complexes mixed and incubated at 4°C for 1 h. As to conditions: scale: CysK chain per CdiA-CT^(M)/CdiI heterodimer.
CdiA-CT^(M)/CdiI complex (heterodimer) (Escherichia coli strain 536 (UPEC536)), sequence (Q0T964 whole entry, one chain of several): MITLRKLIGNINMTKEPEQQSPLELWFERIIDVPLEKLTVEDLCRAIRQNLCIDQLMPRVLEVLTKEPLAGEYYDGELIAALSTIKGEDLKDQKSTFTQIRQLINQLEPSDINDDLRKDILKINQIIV
Series [9] shares this target. Nature of the series: ITC; 30°C, 20 mM HEPES pH 7.5, 150 mM NaCl; CdiA-CT^(M) or its preformed complex in the sample cell, CdiI or CysK (dimer concentration) in the syringe; one-site model for CdiA-CT^(M)/CdiI, two binding site model where CysK is involved; apparent enthalpy.
Series [10] concerns the molecule itself. Nature of the series: AUC; sedimentation velocity, 40,000 rpm, 15°C, 20 mM HEPES pH 7.5, 250 mM NaCl; 10, 20 and 30 μM; c(s) model in SEDFIT; complexes mixed and incubated at 4°C for 1 h.
The next series concerns the target T1, CysK (Escherichia coli, UniProt P0ABK5).
T1 chain: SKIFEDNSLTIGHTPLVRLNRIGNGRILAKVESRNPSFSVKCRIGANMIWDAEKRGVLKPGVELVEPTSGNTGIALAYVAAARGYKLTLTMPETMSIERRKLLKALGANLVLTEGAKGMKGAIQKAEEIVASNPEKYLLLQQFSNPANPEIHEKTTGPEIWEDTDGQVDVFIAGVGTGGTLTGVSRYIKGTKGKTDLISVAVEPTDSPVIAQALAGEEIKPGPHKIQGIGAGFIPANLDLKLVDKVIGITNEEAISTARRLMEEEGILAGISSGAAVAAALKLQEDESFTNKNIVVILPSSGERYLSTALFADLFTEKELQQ
In words: ITC.

Values joined by “and” are separate entries in the source; they are usually repeats but may differ in a detail not shown here. Identical values can stand only once.

RelE (Escherichia coli), sequence (P0C077 whole entry): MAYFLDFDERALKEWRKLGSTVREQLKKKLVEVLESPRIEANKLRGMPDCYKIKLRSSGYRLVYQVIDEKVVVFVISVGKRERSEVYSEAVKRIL

As to RelB (from UniProt P0C079), the Kd in the series with RelE (Escherichia coli) is 0.33 nM.

In [1], CdiI (natural protein) displayed a Kd of 12.8 nM, a dissociation rate constant (koff) of 0.065 s⁻¹ and a kon of 5.1e+06 M⁻¹ s⁻¹. In addition, the stoichiometry N (CdiI per CdiA-CT^(M) (1:1)) in series [2] worked out at 1. For the same molecule, in [3], the KD1, first site was 1.3 nM; the KD2, second site came out at 1.1 nM; the dH, first site was -26.7 kcal/mol; the dH, second site is -24.2 kcal/mol. Further, the stoichiometry N in [3] came to 1.89. Moreover, in [4], the Kd is 26.4 nM, the dH is -29 kcal/mol and the stoichiometry N amounted to 0.993. Further, in series [5], the Kd was found to be 0.3 nM, the koff stood at 0.0005 s⁻¹ and the kon came to 1.5e+06 M⁻¹ s⁻¹.

As to SpoIISA (from UniProt O34853), in series [6], the Kd is 0.46 nM.

B1: CysK (O-acetylserine sulfyhydrylase) (enzyme, E. coli K12, UniProt P0ABK5 1-323, looked up)
chain: MSKIFEDNSLTIGHTPLVRLNRIGNGRILAKVESRNPSFSVKCRIGANMIWDAEKRGVLKPGVELVEPTSGNTGIALAYVAAARGYKLTLTMPETMSIERRKLLKALGANLVLTEGAKGMKGAIQKAEEIVASNPEKYLLLQQFSNPANPEIHEKTTGPEIWEDTDGQVDVFIAGVGTGGTLTGVSRYIKGTKGKTDLISVAVEPTDSPVIAQALAGEEIKPGPHKIQGIGAGFIPANLDLKLVDKVIGITNEEAISTARRLMEEEGILAGISSGAAVAAALKLQEDESFTNKNIVVILPSSGERYLSTALFADLFTEKELQQ
notes: CysK (O-acetylserine sulfhydrylase), amplified from E. coli K12 genomic DNA, in pNIC28-Bsa4; Cloned between NcoI/XhoI of pNIC28-Bsa4; also called CysK dimer; source: E. coli BL21(DE3), purified (Co-NTA, gel filtration)
In series [1], B1 showed a Kd of 32 nM, a koff of 0.00014 s⁻¹ and a kon of 6200 M⁻¹ s⁻¹. Besides, in series [7], the “stoichiometry N” value amounted to 2. For the same molecule, the stoichiometry N (CysK chain per CdiA-CT^(M) chain (2:2)) in series [2] was 1. The stoichiometry N in [8] is 1. Also, in [4], the KD1, first site is 79.3 nM; the KD2, second site came out at 89.2 nM; the dH, first site was -5.62 kcal/mol; the dH, second site is -20.2 kcal/mol. Moreover, the stoichiometry N in series [4] was found to be 0.494. In addition, in series [9], the KD1, first site stood at 12 nM; the KD2, second site was determined as 13.4 nM; the dH, first site was -11 kcal/mol; the dH, second site is -26.7 kcal/mol. The stoichiometry N in series [9] was 0.512. The “stoichiometry N” value in series [10] is 2.

B2: CdiA-CT CT (protein)
chain: VENNALSLVARGCAVAAPCRTKVAEQLLEIGAKAGMAGLAGAAVKDMADRMTSDELEHLITLQMMGNDEITTKYLSSLHDKYGSGAASNPNIGKDLTDAEKVELGGSGSGTGTPPPSENDPKQQNEKTVDKLNQKQESAIKKIDNTIKNALKDHDIIGTLKDMDGKPVPKENGGYWDHMQEMQNTLRGLRNHADTLKNVNNPEAQAAYGRATDAINKIESALKGYGI
On to B2, for which, in the series with CysK, the Kd is 79.3 nM and 89.2 nM.

The koff is the rate constant with which the complex falls apart. In general, kon refers to the rate constant with which the complex forms. One may read the stoichiometry N as the number of molecules, sites or subunits per partner or assembly.

Source of the values: publication PMC4961446, “Dual Role of a Biosynthetic Enzyme, CysK, in Contact Dependent Growth Inhibition in Bacteria” (PLoS ONE, 2016).
